The supplement of paper PMC10567573

B1: VPS39 (parent)
chain: LRLENNHCHIEESEHVLKKAHKYS

Variants of: B1
Experiment: protein stability index of a GFP-peptide fusion (GPS, HEK-293T) (PSI 1-6); higher = more stable
Conditions: c terminus: a fixed tail appended
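Further: lentivirally expressed fusions sorted by FACS into six bins by GFP to DsRed ratio, PSI derived from sequencing read proportions per bin multiplied by bin number.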

Variant	protein stability index
LRLENNHCYIEESEHVLKKAHKYS [H9Y]	1.92
LRLENNHCMIEESEHVLKKAHKYS [H9M]	2.42
LRLENNHCIIEESEHVLKKAHKYS [H9I]	2.19
LRLENNHCHIEESEHVLKKAVKYS [H21V]	3.04
LRLENNHCHIEESEHVLKKALKYS [H21L]	1.9
LRLENNHCHIEESEHVLKKAWKYS [H21W]	2.12
LRLENNHCHIEESEHVLKKASKYS [H21S]	2.29
LRLENNHCHIEESEDVLKKAHKYS [H15D]	2.56
LRLENNHCHIEESEGVLKKAHKYS [H15G]	1.89
LRLENNHCHIEESETVLKKAHKYS [H15T]	2.71
LRLENNHCHIEESEIVLKKAHKYS [H15I]	2.41
LRLENNHCHIEESEKVLKKAHKYS [H15K]	2.74
LRLENNHCHIEESEPVLKKAHKYS [H15P]	2.34
LRLENNHCHIEESENVLKKAHKYS [H15N]	3.07
LRLENNHCHIEESEHVLKKAHCYS [K22C]	2.02
LRLENNHCHIEESEHVLKKAHFYS [K22F]	1.84
LRLENNHCHIEESEHVLKKAHSYS [K22S]	2.51
LRLENNHCHIEESEHVLKKAHAYS [K22A]	2.48
LRLENNHCHIEESEHVLKKAHEYS [K22E]	2.4
LRLENNHCHIEESEHVLKKAHVYS [K22V]	2.57
LRLENNHCHIEESEHVLKKAHMYS [K22M]	1.62
LRLENNHCHIEESEHVLKKAHRYS [K22R]	2.34
LRLENNHCHIEESEHVLIKAHKYS [K18I]	2.26
LRLENNHCHIEESEHVLAKAHKYS [K18A]	2.42

Variant	protein stability index
LRLENNHCHIEESEHVLWKAHKYS [K18W]	1.27
LRLENNHCHIEESEHVLDKAHKYS [K18D]	2.31
LRLENNHCHIEESEHVLCKAHKYS [K18C]	2.02
LRLENNHCHIEESEHVLYKAHKYS [K18Y]	2.39
LRLENNHCHIEESEHVLSKAHKYS [K18S]	1.91
LRLENPHCHIEESEHVLKKAHKYS [N6P]	2.12
LRLENWHCHIEESEHVLKKAHKYS [N6W]	1.97
LRLENHHCHIEESEHVLKKAHKYS [N6H]	3.16
LRLENCHCHIEESEHVLKKAHKYS [N6C]	2.44
LRLENGHCHIEESEHVLKKAHKYS [N6G]	2.66
LRLENTHCHIEESEHVLKKAHKYS [N6T]	2.35
LRLENVHCHIEESEHVLKKAHKYS [N6V]	2.13
LRLENQHCHIEESEHVLKKAHKYS [N6Q]	2.63
LRLENFHCHIEESEHVLKKAHKYS [N6F]	1.75
LRLENRHCHIEESEHVLKKAHKYS [N6R]	2.49
LRLENNTCHIEESEHVLKKAHKYS [H7T]	2.88
LRLENNLCHIEESEHVLKKAHKYS [H7L]	2.32
LRLENNKCHIEESEHVLKKAHKYS [H7K]	2.84
LRLENNSCHIEESEHVLKKAHKYS [H7S]	2.04
LRLENNYCHIEESEHVLKKAHKYS [H7Y]	2.79
LRLENNQCHIEESEHVLKKAHKYS [H7Q]	2.34
LRLENNICHIEESEHVLKKAHKYS [H7I]	2.15
LRLENNHCHIEESEHVLKKAHKYM [S24M]	2.18
LRLENNHCHIEESEHVLKKAHKYN [S24N]	2.3

Variant	protein stability index
LRLENNHCHIEESEHVLKKAHKYF [S24F]	2.37
LRLENNHCHIEESEHVLKKAHKYA [S24A]	1.29
LRLENNHCHIEESEHVLKKAHKYD [S24D]	2.25
LRLENNHCHIEESEHVLKKAHKYW [S24W]	2.24
LRLENNHCHIEESEHVLKKAHKYQ [S24Q]	1.92
LRLENNHCHIEESEHVLKKAHKYH [S24H]	2.65
LRLENNHCHIEEREHVLKKAHKYS [S13R]	2.15
LRLENNHCHIEEFEHVLKKAHKYS [S13F]	1.73
LRLENNHCHIEEEEHVLKKAHKYS [S13E]	2.26
LRLENNHCHIEEGEHVLKKAHKYS [S13G]	2.56
LRLENNHCHHEESEHVLKKAHKYS [I10H]	3.17
LRLENNHCHEEESEHVLKKAHKYS [I10E]	3.08
LRLENNHCHFEESEHVLKKAHKYS [I10F]	2.11
LRLENNHCHVEESEHVLKKAHKYS [I10V]	2.68
LRLENNHCHYEESEHVLKKAHKYS [I10Y]	2.57
LRLENNHCHMEESEHVLKKAHKYS [I10M]	2.34
LRLENNHCHIEESEHVLKKAHKLS [Y23L]	2.7
LRLENNHCHIEESEHVLKKAHKMS [Y23M]	2.17
LRLENNHCHIEESEHVLKKAHKAS [Y23A]	2.76
LRLENNHCHIEESEHVLKKAHKIS [Y23I]	3.14
LRLENNHCHIEESEHVLKKAHKRS [Y23R]	2.25
LRLENNHCHIEESEHVLKKAHKNS [Y23N]	3.05
LRLENNHCHIEESEHVLKKAHKKS [Y23K]	2.21
LRLENNHCHIEESEHVLKKAHKFS [Y23F]	2.28

Variant	protein stability index
LRLENNHCHIEESEHVLKKAHKQS [Y23Q]	2.45
LRLENNHCHIEESEHVLKKAHKSS [Y23S]	2.77
LRLENNHCHIEESEHVLKKLHKYS [A20L]	1.71
LRLENNHCHIEESEHVLKKHHKYS [A20H]	2.3
LRLENNHCHIEESEHVLKKRHKYS [A20R]	2.11
LRLENNHCHIEESEHVLKKWHKYS [A20W]	2.25
LRLENNHCHIAESEHVLKKAHKYS [E11A]	3.06
LRLENNHCHIVESEHVLKKAHKYS [E11V]	1.97
LRLENNHCHIRESEHVLKKAHKYS [E11R]	3.35
LRLENNHCHISESEHVLKKAHKYS [E11S]	3.04
LRLENNHCHIPESEHVLKKAHKYS [E11P]	2.26
LRLENNHCHITESEHVLKKAHKYS [E11T]	2.49
LRLKNNHCHIEESEHVLKKAHKYS [E4K]	3.45
LRLGNNHCHIEESEHVLKKAHKYS [E4G]	2.41
LRLCNNHCHIEESEHVLKKAHKYS [E4C]	2.44
LRLLNNHCHIEESEHVLKKAHKYS [E4L]	2.35
LRLQNNHCHIEESEHVLKKAHKYS [E4Q]	2.92
LRLINNHCHIEESEHVLKKAHKYS [E4I]	2.17
LRLRNNHCHIEESEHVLKKAHKYS [E4R]	3.45
LRLANNHCHIEESEHVLKKAHKYS [E4A]	2.68
LRLVNNHCHIEESEHVLKKAHKYS [E4V]	2.71
LRLFNNHCHIEESEHVLKKAHKYS [E4F]	2.54
